{
  "source": "IntAct's records for PubMed 21642537",
  "parents": {"B1": {"name": "Polycystin-2 (Homo sapiens), Q13563-1 (parent)", "chain": "MVNSSRVQPQQPGDAKRPPAPRAPDPGRLMAGCAAVGASLAAPGGLCEQRGLEIEMQRIRQAAARDPPAGAAASPSPPLSSCSRQAWSRDNPGFEAEEEEEEVEGEEGGMVVEMDVEWRPGSRRSAASSAVSSVGARSRGLGGYHGAGHPSGRRRRREDQGPPCPSPVGGGDPLHRHLPLEGQPPRVAWAERLVRGLRGLWGTRLMEESSTNREKYLKSVLRELVTYLLFLIVLCILTYGMMSSNVYYYTRMMSQLFLDTPVSKTEKTNFKTLSSMEDFWKFTEGSLLDGLYWKMQPSNQTEADNRSFIFYENLLLGVPRIRQLRVRNGSCSIPQDLRDEIKECYDVYSVSSEDRAPFGPRNGTAWIYTSEKDLNGSSHWGIIATYSGAGYYLDLSRTREETAAQVASLKKNVWLDRGTRATFIDFSVYNANINLFCVVRLLVEFPATGGVIPSWQFQPLKLIRYVTTFDFFLAACEIIFCFFIFYYVVEEILEIRIHKLHYFRSFWNCLDVVIVVLSVVAIGINIYRTSNVEVLLQFLEDQNTFPNFEHLAYWQIQFNNIAAVTVFFVWIKLFKFINFNRTMSQLSTTMSRCAKDLFGFAIMFFIIFLAYAQLAYLVFGTQVDDFSTFQECIFTQFRIILGDINFAEIEEANRVLGPIYFTTFVFFMFFILLNMFLAIINDTYSEVKSDLAQQKAEMELSDLIRKGYHKALVKLKLKKNTVDDISESLRQGGGKLNFDELRQDLKGKGHTDAEIEAIFTKYDQDGDQELTEHEHQQMRDDLEKEREDLDLDHSSLPRPMSSRSFPRSLDDSEEDDDEDSGHSSRRRGSISSGVSYEEFQVLVRRVDRMEHSIGSIVSKIDAVIVKLEIMERAKLKRREVLGRLLDGVAEDERLGRDSEIHREQMERLVREELERWESDDAASQISHGLGTPVGLNGQPRPRSSRPSSSQSTEGMEGAGGNGSSNVHV"}},
  "data": [
    {"variants_of": "B1", "conditions": "with PKD1, P98161-3", "values": [
      {"variant": "R877G;R878G", "effect of a mutation on the interaction": "disrupting interaction strength"},
      {"variant": "V865A;I869A", "effect of a mutation on the interaction": "decreasing interaction strength"},
      {"variant": "D861A;I864A;V865A", "effect of a mutation on the interaction": "decreasing interaction strength"},
      {"variant": "K876A;R877A", "effect of a mutation on the interaction": "decreasing interaction strength"},
      {"variant": "R883A;L884A", "effect of a mutation on the interaction": "decreasing interaction strength"},
      {"variant": "L881A;L885A", "effect of a mutation on the interaction": "disrupting interaction strength"},
      {"variant": "V880A;L881A;L885A", "effect of a mutation on the interaction": "decreasing interaction strength"},
      {"variant": "L881D;L885D", "effect of a mutation on the interaction": "decreasing interaction strength"},
      {"variant": "K876G;R877G;R878G;E879G", "effect of a mutation on the interaction": "decreasing interaction strength"},
      {"variant": "K876A;R877A;R878A;E879A", "effect of a mutation on the interaction": "decreasing interaction strength"},
      {"variant": "R877A;R878A", "effect of a mutation on the interaction": "decreasing interaction strength"}
    ]},
    {"variants_of": "B1", "conditions": "with pkd1_mouse Pkd1, O08852", "values": [
      {"variant": "L881A;L885A", "effect of a mutation on the interaction": "decreasing interaction strength"},
      {"variant": "V880A;L881A;L885A", "effect of a mutation on the interaction": "decreasing interaction strength"}
    ]}
  ]
}
